{
  "source": "patent US20120276019",
  "key": {"[1]": {"biological_target": "recombinant α-synuclein, full length (1-140 AA) (rPeptide) (UniProt P37840)"}, "[2]": {"biological_target": "recombinant α-synuclein 1-95 (1-95 AA) (GenWay Biotech) (UniProt P37840)"}},
  "data": [
    {"substance": "porcine pancreas derived KLK1", "values": [
      {"measurement": "degradation (cleavage) of α-synuclein, Western blot after 24 hours at 37° C., 100 nM KLK1 + 2.5 µM α-synuclein", "setting": "[1]", "value": "After 24 hours of treatment, all detectable α-synuclein was degraded by KLK1"},
      {"measurement": "degradation (cleavage) of α-synuclein 1-95, Western blot after 3 hours at 37° C., 1 mM KLK1 + 250 µg/ml α-synuclein 1-95", "setting": "[2]", "value": "After 3 hours of treatment, all detectable α-synuclein 1-95 was degraded by KLK1"}
    ]}
  ]
}
